B1: SecA N619 (SecA 1-619) (domain or fragment)
chain: MLIKLLTKVFGSRNDRTLRRMRKVVNIINAMEPEMEKLSDEELKGKTAEFRARLEKGEVLENLIPEAFAVVREASKRVFGMRHFDVQLLGGMVLNERCIAEMRTGEGKTLTATLPAYLNALTGKGVHVVTVNDYLAQRDAENNRPLFEFLGLTVGINLPGMPAPAKREAYAADITYGTNNEYGFDYLRDNMAFSPEERVQRKLHYALVDEVDSILIDEARTPLIISGPAEDSSEMYKRVNKIIPHLIRQEKEDSETFQGEGHFSVDEKSRQVNLTERGLVLIEELLVKEGIMDEGESLYSPANIMLMHHVTAALRAHALFTRDVDYIVKDGEVIIVDEHTGRTMQGRRWSDGLHQAVEAKEGVQIQNENQTLASITFQNYFRLYEKLAGMTGTADTEAFEFSSIYKLDTVVVPTNRPMIRKDLPDLVYMTEAEKIQAIIEDIKERTAKGQPVLVGTISIEKSELVSNELTKAGIKHNVLNAKFHANEAAIVAQAGYPAAVTIATNMAGRGTDIVLGGSWQAEVAALENPTAEQIEKIKADWQVRHDAVLEAGGLHIIGTERHESRRIDNQLRGRSGRQGDAGSSRFYLSMEDALMRIFASDRVSGMMRKLGMKPGEAIE
B2: SecA N629* (SecA 1-629, N629D) (domain or fragment)
chain: MLIKLLTKVFGSRNDRTLRRMRKVVNIINAMEPEMEKLSDEELKGKTAEFRARLEKGEVLENLIPEAFAVVREASKRVFGMRHFDVQLLGGMVLNERCIAEMRTGEGKTLTATLPAYLNALTGKGVHVVTVNDYLAQRDAENNRPLFEFLGLTVGINLPGMPAPAKREAYAADITYGTNNEYGFDYLRDNMAFSPEERVQRKLHYALVDEVDSILIDEARTPLIISGPAEDSSEMYKRVNKIIPHLIRQEKEDSETFQGEGHFSVDEKSRQVNLTERGLVLIEELLVKEGIMDEGESLYSPANIMLMHHVTAALRAHALFTRDVDYIVKDGEVIIVDEHTGRTMQGRRWSDGLHQAVEAKEGVQIQNENQTLASITFQNYFRLYEKLAGMTGTADTEAFEFSSIYKLDTVVVPTNRPMIRKDLPDLVYMTEAEKIQAIIEDIKERTAKGQPVLVGTISIEKSELVSNELTKAGIKHNVLNAKFHANEAAIVAQAGYPAAVTIATNMAGRGTDIVLGGSWQAEVAALENPTAEQIEKIKADWQVRHDAVLEAGGLHIIGTERHESRRIDNQLRGRSGRQGDAGSSRFYLSMEDALMRIFASDRVSGMMRKLGMKPGEAIEHPWVTKAIAD
B3: SecA N798* (SecA 1-798, D798R) (domain or fragment)
chain: MLIKLLTKVFGSRNDRTLRRMRKVVNIINAMEPEMEKLSDEELKGKTAEFRARLEKGEVLENLIPEAFAVVREASKRVFGMRHFDVQLLGGMVLNERCIAEMRTGEGKTLTATLPAYLNALTGKGVHVVTVNDYLAQRDAENNRPLFEFLGLTVGINLPGMPAPAKREAYAADITYGTNNEYGFDYLRDNMAFSPEERVQRKLHYALVDEVDSILIDEARTPLIISGPAEDSSEMYKRVNKIIPHLIRQEKEDSETFQGEGHFSVDEKSRQVNLTERGLVLIEELLVKEGIMDEGESLYSPANIMLMHHVTAALRAHALFTRDVDYIVKDGEVIIVDEHTGRTMQGRRWSDGLHQAVEAKEGVQIQNENQTLASITFQNYFRLYEKLAGMTGTADTEAFEFSSIYKLDTVVVPTNRPMIRKDLPDLVYMTEAEKIQAIIEDIKERTAKGQPVLVGTISIEKSELVSNELTKAGIKHNVLNAKFHANEAAIVAQAGYPAAVTIATNMAGRGTDIVLGGSWQAEVAALENPTAEQIEKIKADWQVRHDAVLEAGGLHIIGTERHESRRIDNQLRGRSGRQGDAGSSRFYLSMEDALMRIFASDRVSGMMRKLGMKPGEAIEHPWVTKAIANAQRKVESRNFDIRKQLLEYDDVANDQRRAIYSQRNELLDVSDVSETINSIREDVFKATIDAYIPPQSLEEMWDIPGLQERLKNDFDLDLPIAEWLDKEPELHEETLRERILAQSIEVYQRKEEVVGAEMMRHFEKGVMLQTLDSLWKEHLAAMDYLRQGIHLRGYAQKR
B4: SecA N609 (SecA 1-609) (domain or fragment)
chain: MLIKLLTKVFGSRNDRTLRRMRKVVNIINAMEPEMEKLSDEELKGKTAEFRARLEKGEVLENLIPEAFAVVREASKRVFGMRHFDVQLLGGMVLNERCIAEMRTGEGKTLTATLPAYLNALTGKGVHVVTVNDYLAQRDAENNRPLFEFLGLTVGINLPGMPAPAKREAYAADITYGTNNEYGFDYLRDNMAFSPEERVQRKLHYALVDEVDSILIDEARTPLIISGPAEDSSEMYKRVNKIIPHLIRQEKEDSETFQGEGHFSVDEKSRQVNLTERGLVLIEELLVKEGIMDEGESLYSPANIMLMHHVTAALRAHALFTRDVDYIVKDGEVIIVDEHTGRTMQGRRWSDGLHQAVEAKEGVQIQNENQTLASITFQNYFRLYEKLAGMTGTADTEAFEFSSIYKLDTVVVPTNRPMIRKDLPDLVYMTEAEKIQAIIEDIKERTAKGQPVLVGTISIEKSELVSNELTKAGIKHNVLNAKFHANEAAIVAQAGYPAAVTIATNMAGRGTDIVLGGSWQAEVAALENPTAEQIEKIKADWQVRHDAVLEAGGLHIIGTERHESRRIDNQLRGRSGRQGDAGSSRFYLSMEDALMRIFASDRVSGMMRK
B5: SecA N649 (SecA 1-649) (domain or fragment)
chain: MLIKLLTKVFGSRNDRTLRRMRKVVNIINAMEPEMEKLSDEELKGKTAEFRARLEKGEVLENLIPEAFAVVREASKRVFGMRHFDVQLLGGMVLNERCIAEMRTGEGKTLTATLPAYLNALTGKGVHVVTVNDYLAQRDAENNRPLFEFLGLTVGINLPGMPAPAKREAYAADITYGTNNEYGFDYLRDNMAFSPEERVQRKLHYALVDEVDSILIDEARTPLIISGPAEDSSEMYKRVNKIIPHLIRQEKEDSETFQGEGHFSVDEKSRQVNLTERGLVLIEELLVKEGIMDEGESLYSPANIMLMHHVTAALRAHALFTRDVDYIVKDGEVIIVDEHTGRTMQGRRWSDGLHQAVEAKEGVQIQNENQTLASITFQNYFRLYEKLAGMTGTADTEAFEFSSIYKLDTVVVPTNRPMIRKDLPDLVYMTEAEKIQAIIEDIKERTAKGQPVLVGTISIEKSELVSNELTKAGIKHNVLNAKFHANEAAIVAQAGYPAAVTIATNMAGRGTDIVLGGSWQAEVAALENPTAEQIEKIKADWQVRHDAVLEAGGLHIIGTERHESRRIDNQLRGRSGRQGDAGSSRFYLSMEDALMRIFASDRVSGMMRKLGMKPGEAIEHPWVTKAIANAQRKVESRNFDIRKQLLEYD
B6: SecA N831 (SecA 1-831) (domain or fragment)
chain: MLIKLLTKVFGSRNDRTLRRMRKVVNIINAMEPEMEKLSDEELKGKTAEFRARLEKGEVLENLIPEAFAVVREASKRVFGMRHFDVQLLGGMVLNERCIAEMRTGEGKTLTATLPAYLNALTGKGVHVVTVNDYLAQRDAENNRPLFEFLGLTVGINLPGMPAPAKREAYAADITYGTNNEYGFDYLRDNMAFSPEERVQRKLHYALVDEVDSILIDEARTPLIISGPAEDSSEMYKRVNKIIPHLIRQEKEDSETFQGEGHFSVDEKSRQVNLTERGLVLIEELLVKEGIMDEGESLYSPANIMLMHHVTAALRAHALFTRDVDYIVKDGEVIIVDEHTGRTMQGRRWSDGLHQAVEAKEGVQIQNENQTLASITFQNYFRLYEKLAGMTGTADTEAFEFSSIYKLDTVVVPTNRPMIRKDLPDLVYMTEAEKIQAIIEDIKERTAKGQPVLVGTISIEKSELVSNELTKAGIKHNVLNAKFHANEAAIVAQAGYPAAVTIATNMAGRGTDIVLGGSWQAEVAALENPTAEQIEKIKADWQVRHDAVLEAGGLHIIGTERHESRRIDNQLRGRSGRQGDAGSSRFYLSMEDALMRIFASDRVSGMMRKLGMKPGEAIEHPWVTKAIANAQRKVESRNFDIRKQLLEYDDVANDQRRAIYSQRNELLDVSDVSETINSIREDVFKATIDAYIPPQSLEEMWDIPGLQERLKNDFDLDLPIAEWLDKEPELHEETLRERILAQSIEVYQRKEEVVGAEMMRHFEKGVMLQTLDSLWKEHLAAMDYLRQGIHLRGYAQKDPKQEYKRESFSMFAAMLESLKYEVISTLSKVQV
B7: SecA N828 (SecA 1-828) (domain or fragment)
chain: MLIKLLTKVFGSRNDRTLRRMRKVVNIINAMEPEMEKLSDEELKGKTAEFRARLEKGEVLENLIPEAFAVVREASKRVFGMRHFDVQLLGGMVLNERCIAEMRTGEGKTLTATLPAYLNALTGKGVHVVTVNDYLAQRDAENNRPLFEFLGLTVGINLPGMPAPAKREAYAADITYGTNNEYGFDYLRDNMAFSPEERVQRKLHYALVDEVDSILIDEARTPLIISGPAEDSSEMYKRVNKIIPHLIRQEKEDSETFQGEGHFSVDEKSRQVNLTERGLVLIEELLVKEGIMDEGESLYSPANIMLMHHVTAALRAHALFTRDVDYIVKDGEVIIVDEHTGRTMQGRRWSDGLHQAVEAKEGVQIQNENQTLASITFQNYFRLYEKLAGMTGTADTEAFEFSSIYKLDTVVVPTNRPMIRKDLPDLVYMTEAEKIQAIIEDIKERTAKGQPVLVGTISIEKSELVSNELTKAGIKHNVLNAKFHANEAAIVAQAGYPAAVTIATNMAGRGTDIVLGGSWQAEVAALENPTAEQIEKIKADWQVRHDAVLEAGGLHIIGTERHESRRIDNQLRGRSGRQGDAGSSRFYLSMEDALMRIFASDRVSGMMRKLGMKPGEAIEHPWVTKAIANAQRKVESRNFDIRKQLLEYDDVANDQRRAIYSQRNELLDVSDVSETINSIREDVFKATIDAYIPPQSLEEMWDIPGLQERLKNDFDLDLPIAEWLDKEPELHEETLRERILAQSIEVYQRKEEVVGAEMMRHFEKGVMLQTLDSLWKEHLAAMDYLRQGIHLRGYAQKDPKQEYKRESFSMFAAMLESLKYEVISTLSK

The target of this assay is SecYEG-SecDF•YajC (E. coli) (UniProt P0AGA2).
For “E. coli SecA (from UniProt P10408 1-901) (natural protein)”, the % pOmpA Translocation, +YEG: in vitro translocation of pOmpA into liposomes with SecYEG-SecDF•YajC (% pOmpA Translocation) turned out to be 97 and the Channel Activity, μA, +YEG: ion current in Xenopus oocytes injected with SecA, liposomes, SecYEG-SecDF•YajC, pOmpA, ATP-Mg worked out at 7 μA.
“SecA N772 (SecA 1-772) (from UniProt P10408 1-772) (domain or fragment)” registered a % pOmpA Translocation, +YEG: in vitro translocation of pOmpA into liposomes with SecYEG-SecDF•YajC (% pOmpA Translocation) of 0.
On to B1, for which the % pOmpA Translocation, +YEG: in vitro translocation of pOmpA into liposomes with SecYEG-SecDF•YajC (% pOmpA Translocation) is 0 and the Channel Activity, μA, +YEG: ion current in Xenopus oocytes injected with the fragment, liposomes, SecYEG-SecDF•YajC, pOmpA, ATP-Mg came out at 0 μA.
B2 displayed a Channel Activity, μA, +YEG: ion current in Xenopus oocytes injected with the fragment, liposomes, SecYEG-SecDF•YajC, pOmpA, ATP-Mg of 0.4 μA.
On to B3, for which the % pOmpA Translocation, +YEG: in vitro translocation of pOmpA into liposomes with SecYEG-SecDF•YajC (% pOmpA Translocation) worked out at 0.
In the case of B4, the % pOmpA Translocation, +YEG: in vitro translocation of pOmpA into liposomes with SecYEG-SecDF•YajC (% pOmpA Translocation) worked out at 0 and the Channel Activity, μA, +YEG: ion current in Xenopus oocytes injected with the fragment, liposomes, SecYEG-SecDF•YajC, pOmpA, ATP-Mg came to 0 μA.
The corresponding values for B5 are 0 and 5.8 μA.
B6 returned a % pOmpA Translocation, +YEG: in vitro translocation of pOmpA into liposomes with SecYEG-SecDF•YajC (% pOmpA Translocation) of 71.2 and a Channel Activity, μA, +YEG: ion current in Xenopus oocytes injected with the fragment, liposomes, SecYEG-SecDF•YajC, pOmpA, ATP-Mg of 5.8 μA.
Regarding B7, the % pOmpA Translocation, +YEG: in vitro translocation of pOmpA into liposomes with SecYEG-SecDF•YajC (% pOmpA Translocation) came out at 7.6.

The record behind these values is paper PMC5456053.
